Measurements taken from publication doi:10.1101/2022.06.15.496229.

Key:
[1] = biological target: DHR2 domain of human DOCK10 (DOCK10^DHR2, residues 1695-2151) (human) (UniProt Q96BY6); assay: SEC-MALS
[2] = biological target: DHR2 domain of human DOCK10 (DOCK10^DHR2, residues 1695-2151) (human) (UniProt Q96BY6); assay: ITC

DHR2 domain of human DOCK10 (DOCK10^DHR2, residues 1695-2151) (human), sequence (Q96BY6 1695-2151): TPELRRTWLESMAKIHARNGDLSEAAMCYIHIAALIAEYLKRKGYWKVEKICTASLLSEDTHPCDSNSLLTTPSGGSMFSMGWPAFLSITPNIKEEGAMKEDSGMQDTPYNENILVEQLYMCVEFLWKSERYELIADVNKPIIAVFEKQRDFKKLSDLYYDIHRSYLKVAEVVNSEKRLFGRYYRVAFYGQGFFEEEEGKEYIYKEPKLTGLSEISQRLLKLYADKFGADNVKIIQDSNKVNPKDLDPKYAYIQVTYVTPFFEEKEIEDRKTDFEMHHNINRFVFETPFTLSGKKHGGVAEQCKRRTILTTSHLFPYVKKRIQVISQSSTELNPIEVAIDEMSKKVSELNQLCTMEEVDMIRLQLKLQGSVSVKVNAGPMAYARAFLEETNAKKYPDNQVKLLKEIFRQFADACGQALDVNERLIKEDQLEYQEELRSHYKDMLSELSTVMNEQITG

Substance | stoichiometry N (DOCK10^DHR2 per RAC1) [1] | dH [2]
RAC1 (residues 1-192) (from UniProt P63000 1-192) (natural protein) | 2 | –
RAC3 (residues 1-192) (from UniProt P60763 1-192) (natural protein) | – | -2.05 kcal/mol
